The Human Domainome abundance scans (Beltran et al. 2025)
± gives the uncertainty stated by the source.

B1: CD2-associated protein, residues 1 to 59; numbered along this chain, Q9Y5K6 (parent)
chain: MVDYIVEYDYDAVHDDELTIRVGEIIRNVKKLQEEGWLEGELNGRRGMFPDNFVKEIKR

Variants of: B1
Assay: abundance fitness (aPCA) (normalised: wild type 0, dead -1); higher = more abundant; growth selection in yeast, the domain comes from the species named
Settings: Homo sapiens

Row | Variant | abundance fitness
1 | MQDYIVEYDYDAVHDDELTIRVGEIIRNVKKLQEEGWLEGELNGRRGMFPDNFVKEIKR [V2Q] | -0.224 ± 0.18
2 | MWDYIVEYDYDAVHDDELTIRVGEIIRNVKKLQEEGWLEGELNGRRGMFPDNFVKEIKR [V2W] | -0.138 ± 0.2
3 | MCDYIVEYDYDAVHDDELTIRVGEIIRNVKKLQEEGWLEGELNGRRGMFPDNFVKEIKR [V2C] | -0.062 ± 0.12
4 | MVDYIVEYDYDAVHDDELTIRVGEIIRNVKCLQEEGWLEGELNGRRGMFPDNFVKEIKR [K31C] | 0.109 ± 0.34
5 | MVDYIVEYDYDAVHDDELTIRVGEIIRNVKALQEEGWLEGELNGRRGMFPDNFVKEIKR [K31A] | 0.053 ± 0.11
6 | MVDYIVEYDYDAVHDDELTIRVGEHIRNVKKLQEEGWLEGELNGRRGMFPDNFVKEIKR [I25H] | -0.146 ± 0.26
7 | MVDYIVEYDYDAVHDDELTIRVGEGIRNVKKLQEEGWLEGELNGRRGMFPDNFVKEIKR [I25G] | -0.718 ± 0.17
8 | MVDYIVEYDYDAVHDDELTIRVGEIIRNVKKLQEEGWLESELNGRRGMFPDNFVKEIKR [G40S] | -0.463 ± 0.12
9 | MVDYIVEYDYDAVHDDELTIRVGEIIRNVKKLQEEGWLEAELNGRRGMFPDNFVKEIKR [G40A] | -0.999 ± 0.4
10 | MVDYIVEYDYDAVHDDELTIRVGEIIRNVKKLQEEGWLEEELNGRRGMFPDNFVKEIKR [G40E] | -0.926 ± 0.41
11 | MVDYIVEYDYDAVHDDELTIRVGEIIRNVKKLQEEGWLEGELNGRRGYFPDNFVKEIKR [M48Y] | -0.063 ± 0.16
12 | MVDYIVEYDYDAVHDDELTIRVGEIIRNVKKLQEEGWLEGELNGRRGDFPDNFVKEIKR [M48D] | -0.573 ± 0.23
13 | MVDYIVEYDYDAVHDDELTIRVGEIIRNVKKLQEEGWLEGELNGRRGVFPDNFVKEIKR [M48V] | -0.053 ± 0.069
14 | MVDYIVEYDYDAVHDDELTIRVGEIIRNVKKLQEEGWLEGELNGRRGFFPDNFVKEIKR [M48F] | -0.175 ± 0.13
15 | MVDYIVEYDYDAVHDDELTIRVGEIIRNVKKLQEEGWLEGELNGRRGIFPDNFVKEIKR [M48I] | 0.115 ± 0.17
16 | MVDYIVEYDYDAVHDDELTIRVGEIARNVKKLQEEGWLEGELNGRRGMFPDNFVKEIKR [I26A] | -0.636 ± 0.32
17 | MVDYIVQYDYDAVHDDELTIRVGEIIRNVKKLQEEGWLEGELNGRRGMFPDNFVKEIKR [E7Q] | -0.131 ± 0.11
18 | MVDYIVEYDYDAVHDDELTIRVGEIIRNVKKLQEEGWLEGELNGRRGMFPPNFVKEIKR [D51P] | -0.092 ± 0.083
19 | MVDYIVEYDYDAVHDDELTIRVGEIIRNVKKLQEEGWLEGELNGRRGMFPCNFVKEIKR [D51C] | -0.195 ± 0.45
20 | MVDYIVEYDYDAVHDDELTIRVGEIIRNVKKLQEEGWLEGELNGRRGMFPWNFVKEIKR [D51W] | -0.425 ± 0.41
21 | MVDYIVEYDYDAVHDDELTIRVGEIIRNAKKLQEEGWLEGELNGRRGMFPDNFVKEIKR [V29A] | -0.069 ± 0.1
22 | MVDYIVEYDQDAVHDDELTIRVGEIIRNVKKLQEEGWLEGELNGRRGMFPDNFVKEIKR [Y10Q] | -1.18 ± 0.31
23 | MVDYIVEYDYDAVHDDELTIYVGEIIRNVKKLQEEGWLEGELNGRRGMFPDNFVKEIKR [R21Y] | -1 ± 0.33

Row | Variant | abundance fitness
24 | MVDYIVEYDYDAVHDDELTIRVGEIIRNVKKLQEEGWLEGELNGRRGMFPDNFVLEIKR [K55L] | -0.303 ± 0.094
25 | MVDYIVEYDYDAVHDDELTIRVGEIIRNVKKLQEEGWLEGELNGRRGMFPDNFVHEIKR [K55H] | -0.301 ± 0.27
26 | MVDYIVEYDYDAVHDDELTIRVGEIIRNVKKLQEEGILEGELNGRRGMFPDNFVKEIKR [W37I] | -0.451 ± 0.18
27 | MVDYIVEYDYDAVHDDELTIRVGEIIRNVKKLQEEGTLEGELNGRRGMFPDNFVKEIKR [W37T] | -0.359 ± 0.14
28 | MVDYIVEYDYDAVHDDELTIRVGEIIRNVKKLQEEGWKEGELNGRRGMFPDNFVKEIKR [L38K] | -0.264 ± 0.23
29 | MVDYIVEYDYDAVHDDELTIRVGEIIRNVKKLQEEGWVEGELNGRRGMFPDNFVKEIKR [L38V] | -0.525 ± 0.12
30 | MVDYIVEYDYDAVHDDELTIRVGEIIRNVKKLQEEGWLEGELNGRRGMFGDNFVKEIKR [P50G] | -0.322 ± 0.12
31 | MVDYIVEYDYDAVHDDELTIRVGEIIRNVKKLQEEGWLEGELNGRRGMFLDNFVKEIKR [P50L] | -0.412 ± 0.11
32 | MVDYIVEYDYDAYHDDELTIRVGEIIRNVKKLQEEGWLEGELNGRRGMFPDNFVKEIKR [V13Y] | -0.328 ± 0.25
33 | MVDYIVEYDYDAWHDDELTIRVGEIIRNVKKLQEEGWLEGELNGRRGMFPDNFVKEIKR [V13W] | -0.197 ± 0.13
34 | MVDYIVEYDYDAEHDDELTIRVGEIIRNVKKLQEEGWLEGELNGRRGMFPDNFVKEIKR [V13E] | -0.058 ± 0.18
35 | MVDYIVEYDYDAVHDDELTIRVGEIIRNVKKLQEEGWLMGELNGRRGMFPDNFVKEIKR [E39M] | -0.256 ± 0.13
36 | MVDYIVEKDYDAVHDDELTIRVGEIIRNVKKLQEEGWLEGELNGRRGMFPDNFVKEIKR [Y8K] | 0.057 ± 0.12
37 | MVDYIVEDDYDAVHDDELTIRVGEIIRNVKKLQEEGWLEGELNGRRGMFPDNFVKEIKR [Y8D] | -0.197 ± 0.22
38 | MVDYIVEYDYDAVHDDELTIRVGEIIRNVKKLQELGWLEGELNGRRGMFPDNFVKEIKR [E35L] | -0.205 ± 0.062
39 | MVDYIVEYDYDAVHDDELTIRVGEIIRNVKKLQEAGWLEGELNGRRGMFPDNFVKEIKR [E35A] | -0.067 ± 0.058
40 | MVDYIVEYDYDAVHDDELTIRVGEIIRNVKKLQEFGWLEGELNGRRGMFPDNFVKEIKR [E35F] | -0.158 ± 0.15
41 | MVDYRVEYDYDAVHDDELTIRVGEIIRNVKKLQEEGWLEGELNGRRGMFPDNFVKEIKR [I5R] | -0.128 ± 0.12
42 | MVDHIVEYDYDAVHDDELTIRVGEIIRNVKKLQEEGWLEGELNGRRGMFPDNFVKEIKR [Y4H] | -0.554 ± 0.21
43 | MVDTIVEYDYDAVHDDELTIRVGEIIRNVKKLQEEGWLEGELNGRRGMFPDNFVKEIKR [Y4T] | -0.136 ± 0.12
44 | MVDYIVEYDYDAVHDDELTIRVGEIIRNVKKLQEEGWLEGELNGRRGMKPDNFVKEIKR [F49K] | -0.826 ± 0.43
45 | MVDYIVEYDYDAVHDDELTIRVGEIIRNVKKLQEEYWLEGELNGRRGMFPDNFVKEIKR [G36Y] | -0.614 ± 0.15
